Measurements published in patent US9579365B2, “Therapeutic ribonucleases” (Quintessence Biosciences, Inc., priority 2008, dated 2017).

Tests used:
RNA = test: ribonuclease (enzyme) activity compared with native human RNase 1; type: biochemical
ribonuclease inhibitor = biological target: T1, ribonuclease inhibitor (Homo sapiens, UniProt P13489); test: ribonuclease inhibitor evasion; type: binding; settings: compared with QBI-119 and native human RNase 1
T1 sequence (P13489 1-461): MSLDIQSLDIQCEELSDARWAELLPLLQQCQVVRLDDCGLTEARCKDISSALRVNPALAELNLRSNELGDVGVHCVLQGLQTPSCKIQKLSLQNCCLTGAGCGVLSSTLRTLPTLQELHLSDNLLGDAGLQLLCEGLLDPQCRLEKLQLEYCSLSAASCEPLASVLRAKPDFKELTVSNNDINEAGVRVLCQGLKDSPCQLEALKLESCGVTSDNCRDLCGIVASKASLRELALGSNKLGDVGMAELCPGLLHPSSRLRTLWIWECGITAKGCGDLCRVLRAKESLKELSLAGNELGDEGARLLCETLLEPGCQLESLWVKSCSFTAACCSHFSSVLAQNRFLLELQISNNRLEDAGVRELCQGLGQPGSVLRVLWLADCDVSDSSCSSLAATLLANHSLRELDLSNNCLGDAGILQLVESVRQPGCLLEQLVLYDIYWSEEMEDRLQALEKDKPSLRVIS

B1: SEQ ID NO:1: native human RNase 1 with amino acid modifications R4C, G38R, R39G, N67R, G89R, S90R, and V118C (protein)
chain: KESCAKKFQRQHMDSDSSPSSSSTYCNQMMRRRNMTQRGCKPVNTFVHEPLVDVQNVCFQEKVTCKRGQGNCYKSNSSMHITDCRLTNRRRYPNCAYRTSPKERHIIVACEGSPYVPCHFDASVEDST
RNA; compared with QBI-119 and native human RNase 1
  enzyme activity, comparison in words: inferior to QBI-119 and native human RNase 1
RNA; relative to native human RNase 1
  fraction of the ribonuclease activity of native human RNase1: less than 1%
Ribonuclease inhibitor
  ribonuclease inhibitor evasion, comparison in words: inferior to QBI-119 and native human RNase 1
